Assay results from patent US20240018502.
Residue numbers refer to the chain shown, from its start. In names and notes the source's numbering stands.

T1: quenched fluorescence peptidic substrate containing SKGR/SL (P4-P2' of the PAR-2 activation cleavage site, Ser 33 to Leu 38)
T1 chain: SKGRSL

B1: Modified MTSP-1 protease domain Q38H/I41S/D60bT/F60eS/Y60gW/D96K/F97G/ins97aV/T98P/F99L/C122S/G151H/Q175L/Q192D (protein)
chain: VVGGTDADEGEWPWQVSLHALGHGHSCGASLISPNWLVSAAHCYIDTRGSRWSDPTQWTAFLGLHDQSQRSAPGVQERRLKRIISHPFFNKGVPLDYDIALLELEKPAEYSSMVRPISLPDASHVFPAGKAIWVTGWGHTQYGGTHALILQKGEIRVINQTTCENLLPQLITPRMMCVGFLSGGVDSCDGDSGGPLSSVEADGRIFQAGVVSWGDGCAQRNKPGVYTRLPLFRDWIKENTGV
B2: Wild-type MTSP-1 protease domain with C122S (protein)
chain: VVGGTDADEGEWPWQVSLHALGQGHICGASLISPNWLVSAAHCYIDDRGFRYSDPTQWTAFLGLHDQSQRSAPGVQERRLKRIISHPFFNDFTFDYDIALLELEKPAEYSSMVRPISLPDASHVFPAGKAIWVTGWGHTQYGGTGALILQKGEIRVINQTTCENLLPQQITPRMMCVGFLSGGVDSCQGDSGGPLSSVEADGRIFQAGVVSWGDGCAQRNKPGVYTRLPLFRDWIKENTGV
B3: I41R/F97T/Ins97aE/T98G/F99L/C122S/G151N/Q175L/Q192E (protein)
chain: VVGGTDADEGEWPWQVSLHALGQGHRCGASLISPNWLVSAAHCYIDDRGFRYSDPTQWTAFLGLHDQSQRSAPGVQERRLKRIISHPFFNDTEGLDYDIALLELEKPAEYSSMVRPISLPDASHVFPAGKAIWVTGWGHTQYGGTNALILQKGEIRVINQTTCENLLPQLITPRMMCVGFLSGGVDSCEGDSGGPLSSVEADGRIFQAGVVSWGDGCAQRNKPGVYTRLPLFRDWIKENTGV
B4: Q38H/I41A/D60bV/F60eR/Y60gW/F97T/ins97aE/T98G/F99L/C122S/G151N/Q175L/Q192D (protein)
chain: B3 chain with Q23H, R26A, D47V, F50R, Y52W, E189D
B5: Q38H/I41A/D60bT/F60eK/Y60gW/F97T/ins97aE/T98G/F99L/C122S/G151N/Q175L/Q192D (protein)
chain: B3 chain with Q23H, R26A, D47T, F50K, Y52W, E189D
B6: Q38H/I41S/D60bT/F60eS/Y60gW/F97D/ins97aV/T98P/F99L/C122S/G151H/Q175L/Q192E (protein)
chain: B1 chain with K91D, G92D, D189E
B7: Q38H/I41S/D60bT/F60eS/Y60gW/F97D/ins97aV/T98P/F99L/C122S/G151H/Q175L/Q192D (protein)
chain: B1 chain with K91D, G92D
B8: Q38H/I41A/D60bT/F60eK/Y60gW/F97T/ins97aE/T98G/F99L/C122S/G151H/Q175L/Q192D (protein)
chain: B1 chain with S26A, S50K, K91D, G92T, V93E, P94G
B9: Q38H/I41S/D60bT/F60eS/Y60gW/F97D/ins97aV/T98P/F99L/C122S/G151N/Q175L/Q192D (protein)
chain: B1 chain with K91D, G92D, H146N
B10: Q38H/I41A/D60bV/F60eR/Y60gW/F97T/ins97aE/T98G/F99L/C122S/G151H/Q175L/Q192D (protein)
chain: B1 chain with S26A, T47V, S50R, K91D, G92T, V93E, P94G
B11: Q38H/I41A/D60bV/F60eR/Y60gW/D96I/F97Y/ins97aN/T98G/F99L/C122S/G151N/Q175L/Q192D (protein)
chain: B1 chain with S26A, T47V, S50R, K91I, G92Y, V93N, P94G, H146N
B12: Q38H/I41S/D60bT/F60eS/Y60gW/D96K/F97D/ins97aA/T98P/F99L/C122S/G151H/Q175L/Q192D (protein)
chain: B1 chain with G92D, V93A
B13: Q38H/I41A/D60bV/F60eR/Y60gW/D96P/F97W/ins97aN/T98G/F99L/C122S/G151N/Q175L/Q192E (protein)
chain: B3 chain with Q23H, R26A, D47V, F50R, Y52W, D91P, T92W, E93N
B14: Q38H/I41A/D60bV/F60eR/Y60gW/D96I/F97N/T98G/F99L/C122S/G151N/Q175L/Q192D (protein)
chain: VVGGTDADEGEWPWQVSLHALGHGHACGASLISPNWLVSAAHCYIDVRGRRWSDPTQWTAFLGLHDQSQRSAPGVQERRLKRIISHPFFNINGLDYDIALLELEKPAEYSSMVRPISLPDASHVFPAGKAIWVTGWGHTQYGGTNALILQKGEIRVINQTTCENLLPQLITPRMMCVGFLSGGVDSCDGDSGGPLSSVEADGRIFQAGVVSWGDGCAQRNKPGVYTRLPLFRDWIKENTGV
B15: Q38H/I41S/D60bT/F60eS/Y60gW/D96Y/F97E/ins97aV/T98G/F99L/C122S/G151H/Q175L/Q192D (protein)
chain: B1 chain with K91Y, G92E, P94G
B16: Q38H/I41S/D60bT/F60eS/Y60gW/D96L/F97D/ins97aG/T98N/F99L/C122S/G151H/Q175L/Q192E (protein)
chain: B1 chain with K91L, G92D, V93G, P94N, D189E
B17: Q38H/I41S/D60bT/F60eS/Y60gW/D96K/F97G/ins97aV/T98P/F99L/C122S/G151H/Q175L/Q192D (protein)
chain: B1 chain
B18: Q38H/I41S/D60bT/F60eS/Y60gW/D96V/F97G/ins97aV/T98P/F99L/C122S/G151H/Q175L/Q192D (protein)
chain: B1 chain with K91V
B19: Q38H/I41S/D60bT/F60eS/Y60gW/D96K/F97D/ins97aA/T98P/F99L/C122S/G151N/Q175L/Q192D (protein)
chain: B1 chain with G92D, V93A, H146N

Key:
[1] = target: cynomolgus monkey complement protein C3 (endogenous, in vitreous humor)
[2] = target: human complement protein C3
[3] = target: complement protein C3 of cynomolgus monkey plasma
[4] = target: T1, quenched fluorescence peptidic …

Row | Protein | ED50 80% cynomolgus plasma (nM), C3 cleavage, C3 ELISA [3] | SKGR/SL kcat/Km [4] | ED50 80% human plasma (60 min, nM), C3 cleavage [2] | further results
1 | B1 |  |  |  | C3 levels in vitreous humor by ELISA after one intravitreal dose of 125 ug [1]: C3 was undetectable in the variant-treated eye 1, 2, 6, and 7 days after the single injection of the anti-C3 MTSP polypeptide; ED50 of cleavage of human C3 [2]: cleaves human C3 in the assay described herein with an ED50 of 2 nM; anti-C3 activity, fold increase owed to D60bT (against the variant with this residue reverted to wild type) [2]: D60bT-This mutation increases anti-C3 activity by approximately 2.8-fold; anti-C3 activity, fold increase owed to D96K (against the variant with this residue reverted to wild type) [2]: D96K-This mutation increases anti-C3 activity by approximately 2.6-fold; anti-C3 activity, fold increase owed to F60eS (against the variant with this residue reverted to wild type) [2]: F60eS-This mutation increases anti-C3 activity by approximately 1.9-fold; anti-C3 activity, fold increase owed to F97G (against the variant with this residue reverted to wild type) [2]: F97G-This mutation increases anti-C3 activity by approximately 4.3-fold and increases substrate specificity; anti-C3 activity, fold increase owed to F99L (against the variant with this residue reverted to wild type) [2]: F99L: This mutation increases anti-C3 activity by approximately 3.9-fold; anti-C3 activity, fold increase owed to G151H (against the variant with this residue reverted to wild type) [2]: G151H: This mutation increases anti-C3 activity by approximately 1.2-fold; anti-C3 activity, fold increase owed to I41S (against the variant with this residue reverted to wild type) [2]: I41S-This mutation increases anti-C3 activity by approximately 44.6-fold; anti-C3 activity, fold increase owed to Q38H (against the variant with this residue reverted to wild type) [2]: Q38H-This mutation increases C3 activity by approximately 3.7-fold; anti-C3 activity, fold increase owed to Q175L (against the variant with this residue reverted to wild type) [2]: Q175L: This mutation increases anti-C3 activity by approximately 4.3-fold; anti-C3 activity, fold increase owed to T98P (against the variant with this residue reverted to wild type) [2]: T98P: This mutation ... increases anti-C3 activity by approximately 2.2-fold; anti-C3 activity, fold increase owed to Y60gW (against the variant with this residue reverted to wild type) [2]: Y60gW-This mutation increases the enzyme's substrate specificity and increases anti-C3 activity by approximately 4.8-fold; anti-C3 activity, fold increase owed to the insertion 97aV (against the variant without the insertion) [2]: Insert 97aV: This mutation ... increases anti-C3 activity by approximately 1.7-fold; reduction of hemolytic activity (C3H50) after preincubation of C3 with the variant [2]: reduces the hemolytic activity of the serum by approximately 80%
2 | B2 | 2800 nM | 200000 M⁻¹ s⁻¹ | 3500 nM | ED50 of cleavage of human C3 [2]: compared to 11 nM for the wild-type protease domain of SEQ ID NO:4
3 | B3 | 2200 nM | < 100 M⁻¹ s⁻¹ | 835 nM | 
4 | B4 | 101 nM | 925 M⁻¹ s⁻¹ | 52 nM | 
5 | B5 | 195 nM | 245 M⁻¹ s⁻¹ | 65 nM | 
6 | B6 | 76 nM | 959 M⁻¹ s⁻¹ | 50 nM | 
7 | B7 | 152 nM | 1730 M⁻¹ s⁻¹ | 50 nM | 
8 | B8 | 136 nM | 742 M⁻¹ s⁻¹ | 38 nM | 
9 | B9 | 118 nM | 1730 M⁻¹ s⁻¹ | 41 nM | 
10 | B10 | 133 nM | 1360 M⁻¹ s⁻¹ | 32 nM | 
11 | B11 | 37 nM | 2320 M⁻¹ s⁻¹ | 27 nM | 
12 | B12 | 85 nM | 4030 M⁻¹ s⁻¹ | 34 nM | 
13 | B13 | 73 nM | 1620 M⁻¹ s⁻¹ | 47 nM | 
14 | B14 | 58 nM | 3560 M⁻¹ s⁻¹ | 24 nM | 
15 | B15 | 133 nM | 865 M⁻¹ s⁻¹ | 38 nM | 
16 | B16 | 70 nM | 1300 M⁻¹ s⁻¹ | 39 nM | 
17 | B17 | 92 nM | 6210 M⁻¹ s⁻¹ | 25 nM | C3H50 Hemolytic Activity (U/mL), C3-depleted serum plus purified C3; Test Condition #1 (C3 and 8 nM test article incubated separately, no pre-cleavage) [2]: 470 U/mL; C3H50 Hemolytic Activity (U/mL), C3-depleted serum plus purified C3; Test Condition #1 (C3 and 40 nM test article incubated separately, no pre-cleavage) [2]: 594 U/mL; C3H50 Hemolytic Activity (U/mL), C3-depleted serum plus purified C3; Test Condition #1 (C3 and 200 nM test article incubated separately, no pre-cleavage) [2]: 438 U/mL; C3H50 Hemolytic Activity (U/mL), C3-depleted serum plus purified C3; Test Condition #2 (C3 pre-incubated 2 h at 37 C with 8 nM test article) [2]: 295 U/mL; C3H50 Hemolytic Activity (U/mL), C3-depleted serum plus purified C3; Test Condition #2 (C3 pre-incubated 2 h at 37 C with 40 nM test article) [2]: 97.9 U/mL; C3H50 Hemolytic Activity (U/mL), C3-depleted serum plus purified C3; Test Condition #2 (C3 pre-incubated 2 h at 37 C with 200 nM test article) [2]: 73.7 U/mL; CH50 hemolytic activity (U/mL), human citrated plasma after 1 h at 37 C with 3.2 nM test article [2]: 73 U/mL; CH50 hemolytic activity (U/mL), human citrated plasma after 1 h at 37 C with 16 nM test article [2]: 69 U/mL; CH50 hemolytic activity (U/mL), human citrated plasma after 1 h at 37 C with 80 nM test article [2]: 41.5 U/mL; CH50 hemolytic activity (U/mL), human citrated plasma after 1 h at 37 C with 400 nM test article [2]: 10.8 U/mL; CH50 hemolytic activity (U/mL), human citrated plasma after 1 h at 37 C with 2000 nM test article [2]: 5.56 U/mL
18 | B18 | 103 nM | 4990 M⁻¹ s⁻¹ | 27 nM | 
19 | B19 | 37 nM | 2060 M⁻¹ s⁻¹ | 44 nM | 
